# Measurements from publication PMC12207370, “Macrocyclic Peptide Probes for Immunomodulatory Protein CD59: Potent Modulators of Bacterial Toxin Activity and Antibody‐Dependent Cytotoxicity” (Angewandte Chemie (International Ed. in English), 2025).
# Target: T1, biotinylated CD59 (Homo sapiens, UniProt P13987)
# T1 construct: Recombinant soluble human CD59 with an additional C-terminal cysteine residue
# T1 sequence (P13987 26-102 limits assumed): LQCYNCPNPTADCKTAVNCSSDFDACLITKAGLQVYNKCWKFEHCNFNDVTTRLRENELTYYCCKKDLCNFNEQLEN
# Experiment: mRNA-display cyclic peptide screen against CD59-biotin, NGS abundance after 6th selection round
# Details: for Percentage Seq I: counts normalised by total counts of sample Seq I; for Percentage Seq I / Percentage Seq II: percentage of the pool; for Percentage Seq I / Percentage Seq II / Percentage Average / Percentage of the pool, averaged across the two sequencing samples / Percentage of the pool, Seq I / Percentage of the pool, Seq II: sheet R6; for Percentage Seq II: counts normalised by total counts of sample Seq II; for Percentage Average: percentage of the pool averaged across the two sequencing samples; for Counts Seq I / Counts Seq II: raw NGS counts of peptide sequence; for Counts Seq I: sequencing sample Seq I; for Counts Seq I / Counts Seq II / Counts (raw counts for peptide sequence), Seq I / Counts (raw counts for peptide sequence), Seq II: sheet R6 (6th selection round); for Counts Seq II: sequencing sample Seq II; for Counts (raw counts for peptide sequence), Seq I: NGS sample Seq I; for Counts (raw counts for peptide sequence), Seq II: NGS sample Seq II; for Percentage of the pool, averaged across the two sequencing samples: average of Seq I and Seq II; for Percentage of the pool, Seq I: counts normalised by total counts of NGS sample Seq I; for Percentage of the pool, Seq II: counts normalised by total counts of NGS sample Seq II
# How it was run: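 Peptide–mRNA fusions were made by in vitro translation with a customised PURE express kit. The kit lacked release factor 1 and methionine and was supplemented with […] initiator tRNA carrying N-chloroacetyl-d-tyrosine. Thioether macrocycles were formed, then enriched and amplified over iterative rounds on CD59-biotin immobilised on streptavidin beads. NGS read counts per sequence were recorded after the 6th selection round.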
Substance,Percentage Seq I,Percentage Seq II,Percentage Average,Counts Seq I,Counts Seq II,"Counts (raw counts for peptide sequence), Seq I","Counts (raw counts for peptide sequence), Seq II","Percentage of the pool, averaged across the two sequencing samples","Percentage of the pool, Seq I","Percentage of the pool, Seq II"
SAWGNRQIQY+,0.026%,0.016%,0.021%,114,7,,,,,
SAWGNRQIQYC,0.039%,0.028%,0.033%,170,12,,,,,
SAWGNRQIQYF,0.023%,0.030%,0.027%,102,13,,,,,
SAWGNRQIQYH,,,,,,65,7,0.016%,0.015%,0.016%
SAWGNRQIQYY,7.073%,7.046%,7.059%,30945,3036,,,,,
SAWGNRQTQYY,1.151%,1.160%,1.156%,5037,500,,,,,
SAWGNRQVQYY,0.110%,0.116%,0.113%,483,50,,,,,
SAWGNRRIQYY,0.034%,0.037%,0.035%,148,16,,,,,
SAWGNRYIAYY,,,,,,47,6,0.012%,0.011%,0.014%
SAWGNWQIQYY,0.023%,0.030%,0.027%,102,13,,,,,
SAWGSRQIQYY,0.059%,0.051%,0.055%,257,22,,,,,
SAYGSRDFAWA,0.024%,0.023%,0.024%,106,10,,,,,
SCSEWRRGTRS,,,,,,43,4,0.010%,0.010%,0.009%
SFAKRVAAQGGC,0.030%,0.021%,0.026%,133,9,,,,,
SIRGGRDYTRG,0.110%,0.128%,0.119%,482,55,,,,,
SISGGRDYTRG,0.032%,0.026%,0.029%,141,11,,,,,
SKNGLTFLCN,0.181%,0.211%,0.196%,794,91,,,,,
SKNGLTFLCS,0.016%,0.032%,0.024%,70,14,,,,,
SRGGKDWSRG,0.235%,0.251%,0.243%,1026,108,,,,,
SRNGIQFTCS,0.036%,0.037%,0.037%,158,16,,,,,
SSALERIGKCP,0.227%,0.211%,0.219%,991,91,,,,,
SSFREYNHLPCT,0.598%,0.694%,0.646%,2617,299,,,,,
SSWAQLPCKR,0.039%,0.030%,0.035%,170,13,,,,,
SSWAQLPCRR,0.066%,0.070%,0.068%,289,30,,,,,

Substance,Percentage Seq I,Percentage Seq II,Percentage Average,Counts Seq I,Counts Seq II,"Counts (raw counts for peptide sequence), Seq I","Counts (raw counts for peptide sequence), Seq II","Percentage of the pool, averaged across the two sequencing samples","Percentage of the pool, Seq I","Percentage of the pool, Seq II"
SSWAQLPCRS,0.041%,0.051%,0.046%,180,22,,,,,
SSWAQVPCYS,0.040%,0.032%,0.036%,175,14,,,,,
SSYRELAHLPC,0.031%,0.046%,0.039%,135,20,,,,,
SSYRELAHLSC,0.127%,0.125%,0.126%,555,54,,,,,
STKNDYNNVPC,0.012%,0.026%,0.019%,54,11,,,,,
STRRDRLGLIC,1.051%,1.033%,1.042%,4600,445,,,,,
STRRDRLGLTC,,,,,,57,9,0.017%,0.013%,0.021%
STWGNRNETRG,0.029%,0.026%,0.028%,129,11,,,,,
STYNDFFRVPC,0.149%,0.200%,0.174%,650,86,,,,,
SVGGSRSWTRG,0.129%,0.146%,0.138%,566,63,,,,,
SVRGDLYSVLG,,,,,,74,7,0.017%,0.017%,0.016%
SVTGNRDHTRG,0.021%,0.026%,0.023%,92,11,,,,,
SWQNECFRLRT,0.013%,0.026%,0.019%,58,11,,,,,
SWTRGNRSSVRG,,,,,,44,5,0.011%,0.010%,0.012%
SWTWGDRSSVRG,0.016%,0.023%,0.020%,71,10,,,,,
SWTWGNGSSVRG,0.187%,0.186%,0.186%,817,80,,,,,
SWTWGNRNSVRG,0.043%,0.065%,0.054%,190,28,,,,,
SWTWGNRSSARG,0.025%,0.035%,0.030%,110,15,,,,,
SWTWGNRSSVLG,,,,,,35,7,0.012%,0.008%,0.016%
SWTWGNRSSVRG,2.910%,2.799%,2.855%,12733,1206,,,,,
SWTWGNRSSVSG,,,,,,73,2,0.011%,0.017%,0.00464%
SWTWGNRSTVRG,0.011%,0.026%,0.018%,49,11,,,,,
SWTWGNRTSVRG,,,,,,36,7,0.012%,0.008%,0.016%
SYGGRTFIYAWS,,,,,,62,5,0.013%,0.014%,0.012%
